This note sets out measurements from patent publication US20250277030A1 (Zymeworks, published 2025).

The target of test [1] is T1, cynomolgus monkey NaPi2b (cynomolgus monkey, UniProt O95436 1-690 (human entry)).
T1 construct: Transiently expressed on HEK293-6e cells; also called Cyno NaPi2b
T1 chain: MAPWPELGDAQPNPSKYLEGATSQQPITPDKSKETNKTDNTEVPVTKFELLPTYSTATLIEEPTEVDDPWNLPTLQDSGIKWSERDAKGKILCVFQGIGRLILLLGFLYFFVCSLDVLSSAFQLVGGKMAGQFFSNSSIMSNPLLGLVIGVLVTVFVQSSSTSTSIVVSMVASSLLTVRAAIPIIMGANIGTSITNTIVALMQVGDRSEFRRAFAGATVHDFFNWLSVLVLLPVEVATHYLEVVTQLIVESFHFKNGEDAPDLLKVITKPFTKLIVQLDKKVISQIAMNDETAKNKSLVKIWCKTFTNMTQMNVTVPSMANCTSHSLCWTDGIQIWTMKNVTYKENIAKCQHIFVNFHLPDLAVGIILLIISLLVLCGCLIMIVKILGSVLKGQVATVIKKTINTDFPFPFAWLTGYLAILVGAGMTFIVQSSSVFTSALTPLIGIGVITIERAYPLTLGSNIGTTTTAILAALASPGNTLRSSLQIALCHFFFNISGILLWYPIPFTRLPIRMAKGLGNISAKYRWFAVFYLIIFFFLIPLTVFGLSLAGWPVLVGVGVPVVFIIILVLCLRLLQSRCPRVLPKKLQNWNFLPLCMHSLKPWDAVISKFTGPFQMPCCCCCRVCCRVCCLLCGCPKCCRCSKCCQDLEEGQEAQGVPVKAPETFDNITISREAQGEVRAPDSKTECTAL
The test can be described thus: flow cytometry, HEK293-6e cells transfected with cynomolgus NaPi2b; apparent Kd. As to the method:
(§1) The binding cross-reactivity of humanized antibody variant v29456 to human, cynomolgus and mouse NaPi2b was assessed by flow cytometry using HEK293-6e transfected cells.
(§2) Briefly, HEK293-6e cells were transfected for ˜24 hours to transiently express human NaPi2b, cynomolgus or mouse NaPi2b, at 1 μg of DNA per 1 million cells. Following transfection, 50,000 cells per well were seeded in V-bottom 96-well plates and incubated with 200 nM of primary antibody for 18-24 hours at 4° C. to prevent internalization. Post-incubation, cells were washed and stained with anti-Human IgG Fc AF647 conjugate (Jackson Immuno Research Labs, West Grove, PA, Cat. No. 109-605-098, Lot. No. 124868) at 4° C. for 1 hour. Following staining and washing, fluorescence was detected by flow cytometry on BD LSRFortessa™ Cell Analyzer (BD Biosciences, Franklin Lake, NJ) with 10,000 minimum events collected per well. The AF647/APC-A GeoMean (fluorescence signal geometric mean, proportional to anti-Human AF647 binding) was calculated for the live singlet cell population for each primary antibody using FlowJo™ v8 software (BD Biosciences, Franklin Lake, NJ). The Bmax and Kd of each primary antibody were calculated using GraphPad Prism Version 9 (GraphPad Software, San Diego, CA)
On the technique in general: In flow cytometry, cells or beads pass a laser one at a time.

For test [2], the target named is T1, cynomolgus monkey NaPi2b. The test can be described thus: flow cytometry, HEK293-6e cells transfected with cynomolgus NaPi2b. As to the method: as §1, §2
Test [3] has as its target T2, human sodium-dependent phosphate transporter 2B (NaPi2b) (human, UniProt O95436 1-690).
T2 construct: UniProt ID is given as 095436 [sic]; also called hNaPi2b; Hu NaPi2b
T2 sequence: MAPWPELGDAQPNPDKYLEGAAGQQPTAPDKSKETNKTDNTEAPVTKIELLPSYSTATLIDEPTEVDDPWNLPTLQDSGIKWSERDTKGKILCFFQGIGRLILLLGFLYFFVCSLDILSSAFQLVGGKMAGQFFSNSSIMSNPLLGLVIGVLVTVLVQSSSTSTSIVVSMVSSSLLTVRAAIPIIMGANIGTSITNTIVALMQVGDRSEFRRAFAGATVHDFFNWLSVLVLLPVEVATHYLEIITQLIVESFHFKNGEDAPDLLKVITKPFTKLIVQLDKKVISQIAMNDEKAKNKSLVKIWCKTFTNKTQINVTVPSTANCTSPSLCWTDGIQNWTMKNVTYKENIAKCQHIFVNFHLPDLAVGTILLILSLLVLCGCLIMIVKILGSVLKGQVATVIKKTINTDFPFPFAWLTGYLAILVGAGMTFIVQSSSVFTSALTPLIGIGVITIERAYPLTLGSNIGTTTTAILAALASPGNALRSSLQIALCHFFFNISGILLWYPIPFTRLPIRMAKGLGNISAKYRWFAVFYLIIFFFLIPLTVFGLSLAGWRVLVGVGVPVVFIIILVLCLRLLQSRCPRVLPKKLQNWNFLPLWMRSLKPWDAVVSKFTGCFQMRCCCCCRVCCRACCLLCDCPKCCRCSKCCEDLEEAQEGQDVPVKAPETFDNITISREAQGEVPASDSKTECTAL
The experiment in a line: flow cytometry, IGROV-1 cells (endogenous NaPi2b); apparent Kd. As for the experimental part:
as §2
The ability of ADCs to bind to cells expressing NaPi2b was assessed. […] Binding to endogenous high NaPi2b-expressing cell lines IGROV-1 and HCC-78 was assessed by flow cytometry according to methods described in Example 5.

Test [4] addresses T2, human sodium-dependent phosphate …. The experiment in a line: flow cytometry, TOV-21G cells (endogenous NaPi2b); apparent Kd. As to the method:
Briefly, cells were seeded at 50,000 cells/well in conical-bottom 96-well plates and treated with test antibody for 24 hours at 4° C. to prevent internalization. […] Following incubation, cells were washed and stained with anti-Human IgG Fc AF647 conjugate (Jackson Immuno Research Labs, West Grove, PA; Cat. No. 109-605-098) at 4° C. for 30 min. Following incubation and washing, fluorescence was detected by flow cytometry on a BD LSRFortessa™ Cell Analyzer (BD Biosciences, Franklin Lake, NJ) with 1,000 minimum events collected per well. The AF647/APC-A GeoMean (fluorescence signal geometric mean, proportional to anti-Human AF647 binding) was calculated for the live cell population using FlowJo™ Version 10.8.1 (BD Biosciences, Franklin Lake, NJ) and plotted for each test antibody using GraphPad Prism Version 9 (GraphPad Software, San Diego, CA).
The ability of the humanized antibody variants v38591 and v29456 to bind to NaPi2b expressed on cells was assessed on endogenous NaPi2b-expressing tumor cell lines IGROV-1 (ovarian adenocarcinoma) and TOV-21G (ovarian carcinoma) by flow cytometry.
Cellular binding was performed according to methods described in Example 13.

B1: v29456 humanized anti-NaPi2b antibody (H1L2) (antibody, human IgG1, kappa)
heavy: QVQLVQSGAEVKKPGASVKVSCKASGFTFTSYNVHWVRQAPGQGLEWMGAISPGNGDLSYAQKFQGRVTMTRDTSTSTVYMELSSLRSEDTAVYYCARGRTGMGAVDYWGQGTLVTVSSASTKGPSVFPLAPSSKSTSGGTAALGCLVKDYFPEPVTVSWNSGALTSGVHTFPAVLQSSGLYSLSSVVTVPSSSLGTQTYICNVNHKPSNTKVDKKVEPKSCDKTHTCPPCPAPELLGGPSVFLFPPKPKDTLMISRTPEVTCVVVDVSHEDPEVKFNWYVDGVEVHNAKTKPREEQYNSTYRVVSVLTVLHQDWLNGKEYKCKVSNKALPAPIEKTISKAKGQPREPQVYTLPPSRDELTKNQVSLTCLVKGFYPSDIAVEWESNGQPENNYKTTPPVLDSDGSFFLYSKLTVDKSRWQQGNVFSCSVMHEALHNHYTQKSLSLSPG
light: DVQMTQSPSSLSASVGDRVTITCRASQDVYSYLNWYQQKPGKAVKLLIYYTSRLQSGVPSRFSGSGSGTDYTLTISSLQPEDFATYYCQQYNIFPWTFGQGTKLEIKRTVAAPSVFIFPPSDEQLKSGTASVVCLLNNFYPREAKVQWKVDNALQSGNSQESVTEQDSKDSTYSLSSTLTLSKADYEKHKVYACEVTHQGLSSPVTKSFNRGEC
Regarding B1, the Kd in the test with cynomolgus monkey NaPi2b [1] turned out to be 3.2 nM; in test [3], 0.65 nM; in test [4], 0.6 nM. In addition, the “Bmax (APC-A GeoMean)” value with cynomolgus monkey NaPi2b [2] came to 2010 APC-A GeoMean. Also, in the test with cynomolgus monkey NaPi2b [2], the “fold lower apparent Kd than v18992 (MX35)” value is 10 fold. Moreover, the “fold lower apparent Kd than v18993 (lifastuzumab)” value in the test with cynomolgus monkey NaPi2b [2] stood at 2 fold.
